Earlier results in PMC5590664.
pKd: −log10 of the molar value.

Target: HIV-1 capsid protein (full-length) (Human immunodeficiency virus 1) (UniProt O93182)

Chain of HIV-1 capsid protein (full-length) (O93182 133-363): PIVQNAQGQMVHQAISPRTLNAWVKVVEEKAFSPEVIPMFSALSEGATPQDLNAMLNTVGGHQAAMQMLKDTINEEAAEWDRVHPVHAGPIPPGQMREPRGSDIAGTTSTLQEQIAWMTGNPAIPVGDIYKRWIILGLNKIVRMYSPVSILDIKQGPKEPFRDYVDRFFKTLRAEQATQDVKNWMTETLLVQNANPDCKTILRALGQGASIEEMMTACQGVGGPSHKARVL

Substance: HIV-1 capsid protein (full-length) (from UniProt O93182)
- pKd: 4.40
